The supplement of paper PMC10126150
± gives the standard deviation of the averaged measurements.

Tested on: ATP
Assay: switch fluorescence ratio, 500 uM ATP over buffer (Cy3 cluster intensity, sum of 5 cycles each) (fold (ratio)); higher = stronger signal-on switching upon ATP binding; sequences stand for … in TCGTCGGCAGCGTCAGATGTGTATAAGAGACAGTTTTTTTTTTTTTTTTTTTTTTTTT…TC
Details: aptamer strand: ATP DNA aptamer (quencher-CACCTGGGGGAGTATTGCGGAGGAAGG + anchor), 100 nM annealed; ATP concentration: 500 uM
Summary of the method: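 Cy3-labelled switching-strand clusters on a modified Illumina MiSeq flow-cell were annealed to 100 nM quencher-labelled ATP aptamer, imaged in selection buffer, then imaged after 15 min with 500 uM ATP at 22 °C. Five buffer/ATP cycles ran, with NaOH stripping and re-annealing between them. The fluorescence ratio is summed target-cycle over summed buffer-cycle Cy3 intensity per cluster, averaged per switch-domain sequence. Clusters outside 100-1000 RFU were excluded.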
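Also: ATP exposure 15 min at 22 °C before imaging.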

## GTTTGCAAGT
  switch fluorescence ratio: 1.011 ± 0.0072

## AAGATTGTTT
  switch fluorescence ratio: 0.986 ± 0.033

## CATATGTTAG
  switch fluorescence ratio: 1 ± 0.038

## AAGCCGTGTG
  switch fluorescence ratio: 0.988 ± 0.042

## AAGTTTGCAT
  switch fluorescence ratio: 0.978 ± 0.021

## CCACACGTTT
  switch fluorescence ratio: 1.13 ± 0.076

## TTAAAATCAG
  switch fluorescence ratio: 1.01 ± 0.027

## ACAAGGTGAT
  switch fluorescence ratio: 1.15 ± 0.024

## CAGGACTGTT
  switch fluorescence ratio: 1.02 ± 0.011

## CGGTCTGGGG
  switch fluorescence ratio: 0.981 ± 0.027

## GATGAGATTT
  switch fluorescence ratio: 0.972 ± 0.046

## TTGGGAGAAT
  switch fluorescence ratio: 1.02 ± 0.09

## TTATAAAGAG
  switch fluorescence ratio: 1.01 ± 0.029

## TGATTGCCGG
  switch fluorescence ratio: 0.996 ± 0.02

## CGTGGATTCC
  switch fluorescence ratio: 1.03 ± 0.011

## CAGCCGACCG
  switch fluorescence ratio: 1.163 ± 0.0088

## AACGGCTCTT
  switch fluorescence ratio: 1.03 ± 0.074

## GGTATGACTT
  switch fluorescence ratio: 1.03 ± 0.07

## GTTAGCAGGG
  switch fluorescence ratio: 1.01 ± 0.044

## AGAGTTGTTT
  switch fluorescence ratio: 0.997 ± 0.015

## GGAGACAGTT
  switch fluorescence ratio: 0.971 ± 0.024

## TCACACGTCG
  switch fluorescence ratio: 1.02 ± 0.013

## CAAGATGTTG
  switch fluorescence ratio: 0.987 ± 0.047

## AGAGAAGGGA
  switch fluorescence ratio: 1.002 ± 0.0071

## TAGGGGATCA
  switch fluorescence ratio: 0.9839 ± 0.0036

## TGGACCCGAT
  switch fluorescence ratio: 0.978 ± 0.011

## GTTCTGGGCT
  switch fluorescence ratio: 0.973 ± 0.016

## TTATTTTTA
  switch fluorescence ratio: 0.9699 ± 0.0017

## ACGGGGGTAA
  switch fluorescence ratio: 1.18 ± 0.3

## TCCGTAAATT
  switch fluorescence ratio: 1.14 ± 0.013

## GGCCGTGAGT
  switch fluorescence ratio: 0.996 ± 0.018

## GAATTTGGAA
  switch fluorescence ratio: 1.01 ± 0.022

## GAGAATGTGT
  switch fluorescence ratio: 0.994 ± 0.012

## GCTACAGGTT
  switch fluorescence ratio: 1.007 ± 0.0092

## ACGTAGCATG
  switch fluorescence ratio: 2.46 ± 0.45

## TTGGTCGTAC
  switch fluorescence ratio: 1.03 ± 0.015

## CTGAATACGT
  switch fluorescence ratio: 1.009 ± 0.0078

## AGGTGATGGG
  switch fluorescence ratio: 1.04 ± 0.023

## ATTTATTGGC
  switch fluorescence ratio: 1.02 ± 0.042

## GAGGCTGGGG
  switch fluorescence ratio: 1 ± 0.038

## AGGAGGGATG
  switch fluorescence ratio: 0.985 ± 0.022

## TCGTTGAGCA
  switch fluorescence ratio: 0.994 ± 0.018

## TTAATTTAAA
  switch fluorescence ratio: 0.9752 ± 0.0031

## CTCAGGGCGT
  switch fluorescence ratio: 0.97546 ± 0.00044

## GGACCGGGAC
  switch fluorescence ratio: 1.12 ± 0.11

## TTGTTATCCG
  switch fluorescence ratio: 0.964 ± 0.048

## GGGAACCGGG
  switch fluorescence ratio: 1.2 ± 0.33

## CCTTTTTATG
  switch fluorescence ratio: 1.024 ± 0.0028

## TTCGTCAGTG
  switch fluorescence ratio: 0.986 ± 0.013

## TCGGTAATAT
  switch fluorescence ratio: 1.08 ± 0.16

## GCAGGGATCA
  switch fluorescence ratio: 0.9813 ± 0.0013

## CAGGATCTAG
  switch fluorescence ratio: 1 ± 0.024

## TTAGTTCGGG
  switch fluorescence ratio: 0.965 ± 0.023

## GGAAAAAATA
  switch fluorescence ratio: 1.001 ± 0.0072

## AGGCATCAAC
  switch fluorescence ratio: 1.02 ± 0.013

## TTGGAGTTTG
  switch fluorescence ratio: 1.02 ± 0.051

## CTTTATTTGC
  switch fluorescence ratio: 1.05 ± 0.021

## CCAGGTATGA
  switch fluorescence ratio: 1.03 ± 0.035

## GGTAGGGGGG
  switch fluorescence ratio: 1.01 ± 0.035

## TCCGTTTCGG
  switch fluorescence ratio: 0.997 ± 0.047

## AGGTGGTAGT
  switch fluorescence ratio: 1 ± 0.012

## ACATGCATTA
  switch fluorescence ratio: 1.02 ± 0.026

## AAGAAACACA
  switch fluorescence ratio: 1.02 ± 0.038

## TCGTTTTGGG
  switch fluorescence ratio: 0.9988 ± 0.0056

## GCAATTAAAT
  switch fluorescence ratio: 0.996 ± 0.036

## ATTAGGGTGG
  switch fluorescence ratio: 0.992 ± 0.018

## TTAAGGGTGT
  switch fluorescence ratio: 1.02 ± 0.04

## TCGGGAGAAG
  switch fluorescence ratio: 1.01 ± 0.013

## GATGTGCGTG
  switch fluorescence ratio: 0.9956 ± 0.0091

## TGGATTGGGG
  switch fluorescence ratio: 0.978 ± 0.059

## CGTTACTGGT
  switch fluorescence ratio: 0.973 ± 0.016

## CCAGCAGGTA
  switch fluorescence ratio: 1.13 ± 0.064

## GTGCAAGGCG
  switch fluorescence ratio: 0.988 ± 0.032

## AGAGATACTT
  switch fluorescence ratio: 1.01 ± 0.035

## CTGAGGCGCC
  switch fluorescence ratio: 1.01 ± 0.056

## TTCTAAAAAT
  switch fluorescence ratio: 1.06 ± 0.023

## CCTTCGTTGT
  switch fluorescence ratio: 2.85 ± 0.64

## GTATCATGCC
  switch fluorescence ratio: 1.01 ± 0.011

## GGTTTAAAGA
  switch fluorescence ratio: 1 ± 0.038

## TTTTGTAACG
  switch fluorescence ratio: 1 ± 0.034

## ACAGGTAAA
  switch fluorescence ratio: 1.02 ± 0.028

## TTTTTTCCCG
  switch fluorescence ratio: 1.09 ± 0.11

## GGTCCGGGGA
  switch fluorescence ratio: 0.989 ± 0.013

## CTGTTTTTGT
  switch fluorescence ratio: 1.01 ± 0.024

## TGGGAATATG
  switch fluorescence ratio: 1 ± 0.036

## TATTTTTCTC
  switch fluorescence ratio: 0.983 ± 0.034

## GCAGTCCGTC
  switch fluorescence ratio: 1.06 ± 0.019

## GGGGGAGCAG
  switch fluorescence ratio: 0.9812 ± 0.0084

## TGCTTATCTA
  switch fluorescence ratio: 1.016 ± 0.0077

## TGGGGGACGA
  switch fluorescence ratio: 0.954 ± 0.032

## GATTAAATTT
  switch fluorescence ratio: 1.01 ± 0.033

## TCGGAGTGGG
  switch fluorescence ratio: 1.03 ± 0.043

## TGTTTTTTGC
  switch fluorescence ratio: 0.995 ± 0.056

## ATCAGGGTAC
  switch fluorescence ratio: 1.05 ± 0.04

## AGATGTGTGG
  switch fluorescence ratio: 0.989 ± 0.053

## CAATATGTTT
  switch fluorescence ratio: 0.991 ± 0.051

## TTTAGAGGAA
  switch fluorescence ratio: 0.977 ± 0.032

## TGATGGGCGG
  switch fluorescence ratio: 0.9957 ± 0.008

## TATTGGCTTC
  switch fluorescence ratio: 0.992 ± 0.018

## GTGGGATTAT
  switch fluorescence ratio: 1 ± 0.019

## AATTGATAAA
  switch fluorescence ratio: 0.984 ± 0.042

## CGGGACAGGG
  switch fluorescence ratio: 1 ± 0.013

## GCTGATATGG
  switch fluorescence ratio: 1.02 ± 0.054

## TGGGTTTAAC
  switch fluorescence ratio: 1.08 ± 0.18

## GATCGGGCTA
  switch fluorescence ratio: 0.9664 ± 0.0014

## ACTTGGCGCT
  switch fluorescence ratio: 1.034 ± 0.0095

## GCTATGTAGG
  switch fluorescence ratio: 1 ± 0.062

## AGGGACAAGG
  switch fluorescence ratio: 1.014 ± 0.0095

## TGTGTGTTTA
  switch fluorescence ratio: 1.01 ± 0.012

## TATTTATAGT
  switch fluorescence ratio: 1.02 ± 0.013

## GGTGGGGGCG
  switch fluorescence ratio: 1 ± 0.024

## AGGTGTTATC
  switch fluorescence ratio: 0.9933 ± 0.0015

## TGGTGCGGGC
  switch fluorescence ratio: 1.05 ± 0.12

## CATAATCCGG
  switch fluorescence ratio: 0.9679 ± 0.0022

## GTGATAGTGG
  switch fluorescence ratio: 0.9385 ± 0.0022

## GGGCAAGGGT
  switch fluorescence ratio: 0.977 ± 0.029

## CCTGGGGGG
  switch fluorescence ratio: 1.02 ± 0.045

## AAACTGATGA
  switch fluorescence ratio: 1.06 ± 0.024

## ATAAATGACG
  switch fluorescence ratio: 1.02 ± 0.037

## GGACTAAAAT
  switch fluorescence ratio: 1.08 ± 0.13

## GCTTTATTTA
  switch fluorescence ratio: 0.992 ± 0.053

## TACGAATAGG
  switch fluorescence ratio: 1.017 ± 0.0043

## AACAGTAGGG
  switch fluorescence ratio: 1.03 ± 0.012

## GGTTTGGCGT
  switch fluorescence ratio: 0.981 ± 0.017

## CACTTAAAAG
  switch fluorescence ratio: 1.05 ± 0.13

## CGGGGATACG
  switch fluorescence ratio: 1.01 ± 0.048

## TCCAGGGGGG
  switch fluorescence ratio: 1.18 ± 0.27

## ACGCCATAGT
  switch fluorescence ratio: 1.25 ± 0.059

## CGCTGCTCGA
  switch fluorescence ratio: 1.06 ± 0.013

## TTGGAGGTCG
  switch fluorescence ratio: 1.03 ± 0.019

## TAATAGTAAG
  switch fluorescence ratio: 0.996 ± 0.053

## TTTAAGGGG
  switch fluorescence ratio: 1.02 ± 0.051

## TTCTATTCGA
  switch fluorescence ratio: 1.008 ± 0.0058

## GGGGTATGAC
  switch fluorescence ratio: 1.02 ± 0.015

## CATATGCGTC
  switch fluorescence ratio: 1.02 ± 0.035

## GGGGTGTTGC
  switch fluorescence ratio: 0.999 ± 0.056

## ACACGGTGAT
  switch fluorescence ratio: 1.056 ± 0.0056

## AGCGTAGAGC
  switch fluorescence ratio: 1.03 ± 0.04

## GGTCGGGGTC
  switch fluorescence ratio: 0.966 ± 0.039

## ATGGGTTCTG
  switch fluorescence ratio: 0.999 ± 0.017

## TAGTGGTCCA
  switch fluorescence ratio: 0.98 ± 0.03

## TGAGTCGTGT
  switch fluorescence ratio: 0.9674 ± 0.0054

## ATTCACATCG
  switch fluorescence ratio: 1.01 ± 0.06

## TATTGTCAGA
  switch fluorescence ratio: 1.01 ± 0.019

## ATTGGGGTGG
  switch fluorescence ratio: 0.935 ± 0.12

## ACCATGGGAT
  switch fluorescence ratio: 1.02 ± 0.015

## TATGCGTTGG
  switch fluorescence ratio: 1.007 ± 0.0024

## ACCCGAGGGA
  switch fluorescence ratio: 1.05 ± 0.05

## GATTCGGGGA
  switch fluorescence ratio: 0.999 ± 0.014

## TTATCGAGGG
  switch fluorescence ratio: 0.989 ± 0.03

## ATATAGGTTT
  switch fluorescence ratio: 1.01 ± 0.0081

## CCTAATTGAA
  switch fluorescence ratio: 0.9728 ± 0.0041

## TGTGGTAGAA
  switch fluorescence ratio: 0.989 ± 0.023

## TTGAGCAAGG
  switch fluorescence ratio: 1.06 ± 0.089

## ATTTGGAAAG
  switch fluorescence ratio: 0.999 ± 0.021

## GATCGTTTGT
  switch fluorescence ratio: 1.01 ± 0.021

## GATTGGGGTG
  switch fluorescence ratio: 1 ± 0.035
